Results as given in patent US20090081229A1 (published 2009).

How the values were obtained:
[1] = biological target: T1, PRO87299 expressed on cells (human, UniProt Q7Z6A9 31-289); experiment: radioligand binding to transfected cells, Scatchard analysis
T1 construct: also called PRO87299 transfected cells; 293 cells expressing PRO87299
Method: (§1) PRO87299 binds to HVEM in a cell based assay. In this experiment human 293 cells (ATCC CCL 1573) are grown to confluence in tissue culture plates in medium such as DMEM supplemented with fetal calf serum and optionally, nutrient components and/or antibiotics. About 10 μg pRK5-HVEM DNA is mixed with about 1 μg DNA encoding the VA RNA gene [Thimmappaya et al., Cell, 31:543 (1982)] and dissolved in 500 μl of 1 mM Tris-HCl, 0.1 mM EDTA, 0.227 M CaCl₂. To this mixture is added, dropwise, 500 μl of 50 mM HEPES (pH 7.35), 280 mM NaCl, 1.5 mM NaPO₄, and a precipitate is allowed to form for 10 minutes at 25° C. The precipitate is suspended and added to the 293 cells and allowed to settle for about four hours at 37° C. The culture medium is aspirated off and 2 ml of 20% glycerol in PBS is added for 30 seconds. The 293 cells are then washed with serum free medium, fresh medium is added and the cells are incubated for about 5 days. Alternatively, about 10 μg pRK5-HVEM DNA is mixed with LipofectAMINE™ (Gibco/BRL, Gaithersburg Md.) reagent and transfection performed by following the manufacturer's instructions. After the 293 cells were transfected with HVEM, they were incubated with 1125 radiolabled PRO87299(ECD)-Fc and binding allowed to occur. The radiolabled PRO87299 was then competed off with unlabled PRO87299(ECD)-Fc and the estimated number of total binding sites and the dissociation constant (Kd) were determined by Scatchard analysis. FIG. 17(A) is a Scatchard plot and FIG. 17(B) is a displacement plot showing PRO87299(ECD)-Fc binding to HVEM transiently transfected cells. […] Using this methodology, the affinity of HVEM/LIGHT/PRO87299 interactions were determined.

[2] = biological target: T2, LIGHT expressed on transfected cells (Homo sapiens (Human), UniProt O43557 1-240); experiment: as above
T2 construct: also called LIGHT (expressed protein)
Method: as §1

[3] = biological target: T3, PRO87299/LIGHT (both expressed on the same transfected cells) (human, UniProt Q7Z6A9 31-289; O43557 1-240); experiment: radioligand binding to cells expressing both PRO87299 and LIGHT, Scatchard analysis
T3 construct: Two proteins co-expressed on cells as the target of I-125-HVEM-Fc; not a defined complex

hPD-1-Fc = biological target: T4, hPD-1-Fc (human, UniProt Q15116 25-167); experiment: SPR (Biacore), hPD-1-Fc amine coupled at approximately 8000 RU
T4 construct: Bought; not shown: Fc; not described
Method: (§2) In this experiment, PRO87299(ECD)-Fc and CD28 family members hCTLA4-Fc, hPD-1-Fc, hICOS-Fc or hCD28-Fc were amine coupled to a Biacore™ CM5 chip at approximately 8000 response units. Each was then assayed for its ability to bind HVEM. An HVEM-Fc protein was made by ligating the nucleic acids encoding amino acids 1-199 of HVEM to a Fc, resulting in a HVEM-Fc fusion protein. This HVEM-Fc was cloned into an a expression vector which would produce the fusion protein when stably transfected into CHO cells. […] The result was 2 μg/ml of HVEM-Fc injected at 5 μl/min bound selectively to PRO87299 and not to the other member of the CD28 family members tested. The activity of each CD28 family member was confirmed positive by testing the binding response to their known ligands (data not shown) (CD28 family members and ligands were purchased from R&D systems).

hCD28-Fc = biological target: T5, hCD28-Fc (human, UniProt P10747 19-152); experiment: SPR (Biacore), hCD28-Fc amine coupled at approximately 8000 RU
T5 construct: Bought; not shown: Fc; not described
Method: as §2

hICOS-Fc = biological target: T6, hICOS-Fc (human, UniProt Q9Y6W8 21-141); experiment: SPR (Biacore), hICOS-Fc amine coupled at approximately 8000 RU
T6 construct: Bought; not shown: Fc; not described
T6 sequence (looked up): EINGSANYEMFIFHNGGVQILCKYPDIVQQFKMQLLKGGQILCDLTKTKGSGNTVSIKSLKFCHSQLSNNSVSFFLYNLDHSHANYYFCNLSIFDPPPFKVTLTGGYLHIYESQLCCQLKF
Method: as §2

hCTLA4-Fc = biological target: T7, hCTLA4-Fc (human, UniProt P16410 37-162, limits assumed); experiment: SPR (Biacore), hCTLA4-Fc amine coupled at approximately 8000 RU
T7 construct: Bought; not shown: Fc; not described
T7 sequence (looked up): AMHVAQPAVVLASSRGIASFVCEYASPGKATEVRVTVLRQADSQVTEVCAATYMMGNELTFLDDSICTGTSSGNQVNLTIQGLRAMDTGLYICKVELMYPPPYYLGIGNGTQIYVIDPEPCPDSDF
Method: as §2

PRO87299(ECD)-Fc [4] = biological target: T8, PRO87299(ECD)-Fc (human, UniProt Q7Z6A9 31-155); experiment: SPR (Biacore), PRO87299(ECD)-Fc amine coupled at ~8000 RU
T8 construct: Reduced apparent molecular weight 55 kDa; also called PRO87299-Fc; PRO87299(ECD)-Fc chimera; not shown: human Fc domain
T8 sequence: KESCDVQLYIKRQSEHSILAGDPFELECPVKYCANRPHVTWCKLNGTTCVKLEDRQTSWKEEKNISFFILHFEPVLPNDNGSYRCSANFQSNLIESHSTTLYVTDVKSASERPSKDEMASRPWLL
Method: as §2

[5] = biological target: T9, HVEM expressed on transfected 293 cells (Homo sapiens (Human), UniProt Q92956 39-283); experiment: radioligand binding to transfected cells, Scatchard analysis
T9 construct: Transient transfection of human 293 cells with pRK5-HVEM; also called HVEM transfected cells; 293 cells expressing HVEM
T9 sequence: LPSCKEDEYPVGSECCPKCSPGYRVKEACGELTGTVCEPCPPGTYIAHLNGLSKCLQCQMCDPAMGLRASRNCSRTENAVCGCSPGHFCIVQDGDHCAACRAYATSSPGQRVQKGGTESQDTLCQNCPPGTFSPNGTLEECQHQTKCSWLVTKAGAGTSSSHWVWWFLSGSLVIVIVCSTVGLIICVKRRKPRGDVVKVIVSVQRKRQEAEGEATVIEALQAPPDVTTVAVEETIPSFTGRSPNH
Method: as §1

PRO87299(ECD)-Fc [6] = biological target: T8, PRO87299(ECD)-Fc; experiment: SPR (Biacore), PRO87299-Fc amine coupled at ~9800 RU
Method: PRO87299 interaction to HVEM is not blocked by LIGHT. PRO87299-Fc was amine coupled to a Biacore™ CM5 sensor chip at ˜9800 response units. LIGHT (purchased from Alexis™, Cat. #552-018-C010) was incubated at the increasing concentrations with 4 nM HVEM for 1 hr. […] LIGHT activity was confirmed by binding to immobilized HVEM-Fc on a CM5 sensor chip (data not shown). […] All binding sensograms were run in random order and in duplicate. Response units were recorded as the difference between baseline and 15 seconds before the end of a 2 min injection at 5 μl/min. Concentrations are based on molecular weights of 25 kDa for LIGHT monomer and 55 kDa for monomer HVEM.

T4 sequence (Q15116 25-167 limits assumed): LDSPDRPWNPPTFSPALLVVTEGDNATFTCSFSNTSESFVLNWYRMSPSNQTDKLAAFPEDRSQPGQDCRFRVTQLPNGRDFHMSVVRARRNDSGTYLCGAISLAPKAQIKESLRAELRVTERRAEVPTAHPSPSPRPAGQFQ
T5 sequence (P10747 19-152 limits assumed): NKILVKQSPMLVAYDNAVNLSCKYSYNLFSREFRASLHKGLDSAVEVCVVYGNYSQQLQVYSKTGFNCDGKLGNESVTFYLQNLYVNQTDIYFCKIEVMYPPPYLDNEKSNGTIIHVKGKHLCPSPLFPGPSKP

B1: HVEM-Fc (Fc fusion)
chain: LPSCKEDEYPVGSECCPKCSPGYRVKEACGELTGTVCEPCPPGTYIAHLNGLSKCLQCQMCDPAMGLRASRNCSRTENAVCGCSPGHFCIVQDGDHCAACRAYATSSPGQRVQKGGTESQDTLCQNCPPGTFSPNGTLEECQHQTKCSWLVTKAGAGTSSS
notes: Produced in stably transfected CHO cells, Protein A purified; also called HVEM-Fc fusion protein; I-125-HVEM-Fc; not shown: Fc
Q: Which results are given for B1?
A: Kd [1]: 5.5 nM; Kd [2]: 7 nM; Kd [3]: 0.5 nM; binding result (hPD-1-Fc): no binding (tested: 2 µg/ml); binding result (hCD28-Fc): no binding (tested: 2 µg/ml); binding result (hICOS-Fc): no binding (tested: 2 µg/ml); binding result (hCTLA4-Fc): no binding (tested: 2 µg/ml); binding result (PRO87299(ECD)-Fc [4]): binds

B2: LIGHT-FLAG (ligand)
chain: GEMVTRLPDGPAGSWEQLIQERRSHEVNPAAHLTGANSSLTGSGGPLLWETQLGLAFLRGLSYHDGALVVTKAGYYYIYSKVQLGGVGCPLGLASTITHGLYKRTPRYPEELELLVSQQSPCGRATSSSRVWWDSSFLGGVVHLEAGEEVVVRVLDERLVRLRDGTRSYFGAFMV
notes: Radio-iodinated; also called I-125-LIGHT-FLAG; not shown: FLAG tag
Q: How did the Kd [5] turn out when B2 was run?
A: 2.5 nM

B3: LIGHT (soluble, purchased from Alexis, Cat. #552-018-C010) (ligand)
chain: B2 chain
notes: Bought soluble protein; Monomer molecular weight 25 kDa used for concentrations
Q: Does B3 bind (PRO87299(ECD)-Fc [6])?
A: no binding
